For test [1], the target named is T1, rat amylin receptor (rat calcitonin receptor + rat RAMP 3) (rat, UniProt P32214 25-516; Q9JJ73 23-147).
T1 construct: whole, on cells; also called rAmylin-R; rat amylin 3(a) receptor
T1 sequence (looked up) 1: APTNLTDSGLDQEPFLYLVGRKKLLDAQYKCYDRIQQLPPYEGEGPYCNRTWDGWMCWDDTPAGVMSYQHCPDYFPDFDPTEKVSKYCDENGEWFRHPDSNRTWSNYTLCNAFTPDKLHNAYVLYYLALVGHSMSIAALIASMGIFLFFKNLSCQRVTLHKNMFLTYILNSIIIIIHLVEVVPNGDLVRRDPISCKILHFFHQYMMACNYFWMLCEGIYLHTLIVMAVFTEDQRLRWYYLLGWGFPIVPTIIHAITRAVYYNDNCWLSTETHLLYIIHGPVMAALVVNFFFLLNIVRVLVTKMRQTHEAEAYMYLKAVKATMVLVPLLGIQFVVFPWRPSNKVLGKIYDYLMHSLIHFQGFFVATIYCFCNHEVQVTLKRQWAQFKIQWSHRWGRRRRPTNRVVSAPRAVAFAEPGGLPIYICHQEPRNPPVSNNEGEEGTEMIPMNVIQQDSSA
T1 sequence (looked up) 2: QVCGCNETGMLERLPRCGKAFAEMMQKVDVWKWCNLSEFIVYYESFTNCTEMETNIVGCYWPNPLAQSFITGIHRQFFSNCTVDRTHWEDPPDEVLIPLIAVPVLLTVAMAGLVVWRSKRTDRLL
Kind of test: SPA competition with 125I-rat amylin, membranes of BHK cells with rat calcitonin receptor + rat RAMP3 (Assay VI).

In test [2] the target is T2, human calcitonin receptor (human, UniProt P30988 25-474).
T2 construct: whole, on cells; also called hCTR; hCT
T2 sequence (looked up): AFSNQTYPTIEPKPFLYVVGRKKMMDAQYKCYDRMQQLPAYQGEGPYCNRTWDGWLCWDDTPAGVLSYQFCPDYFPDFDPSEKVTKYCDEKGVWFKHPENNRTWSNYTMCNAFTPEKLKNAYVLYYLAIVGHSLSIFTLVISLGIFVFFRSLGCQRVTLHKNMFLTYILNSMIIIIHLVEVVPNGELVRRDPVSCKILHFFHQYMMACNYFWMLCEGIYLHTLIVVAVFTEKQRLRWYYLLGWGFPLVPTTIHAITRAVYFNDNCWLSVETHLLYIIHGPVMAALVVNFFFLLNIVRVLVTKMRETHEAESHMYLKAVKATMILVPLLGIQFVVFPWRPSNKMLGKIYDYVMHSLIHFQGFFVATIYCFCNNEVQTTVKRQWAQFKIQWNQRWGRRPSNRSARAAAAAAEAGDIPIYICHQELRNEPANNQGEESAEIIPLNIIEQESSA
Kind of test: ratio of binding IC50s: human calcitonin receptor over human amylin receptor (reference). A digest of the protocol:
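Competition binding by SPA uses membrane preparations (35 ng/μL final) in pH 7.4 Hepes buffer with 1 mM CaCl2 and 5 mM MgCl₂. Incubation lasts 120 min at 25° C, and IC₅₀ comes from one-site fitting.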

Test [3] has as its target T3, rat calcitonin receptor (rat, UniProt P32214 25-516).
T3 construct: whole, on cells; also called rCTR; rat calcitonin (a) receptor
T3 sequence (looked up): T1 sequence (looked up) 1
Kind of test: SPA competition with 125I-calcitonin, membranes of BHK cells with rat calcitonin receptor (Assay VIII).

In test [4] the target is T3, rat calcitonin receptor. Kind of test: ratio of binding IC50s: rat calcitonin receptor over rat amylin receptor (reference).

Data on four molecules can be found in patent US20140087995A1 (published 2014).

Numbered stars: 1 amine (or outer) side, 2 acyl side, 3 side chain; on linkers, the order of the positions; unused ones are H or OH. Bridge positions count the residues as written; N and C are the ends. Side chains are listed from the residue outwards. Ends that are not written are not given here. * marks the point of attachment. C20 diacid = O=C(O)CCCCCCCCCCCCCCCCCCC(=O)*; γGlu = O=C(O)[C@H](CCC(=O)[*:2])N[*:1]

B1: N^ε1-[(4S)-4-carboxy-4-[[(4S)-4-carboxy-4-(19-carboxynonadecanoylamino)butanoyl]amino]butanoyl]-[Glu14,Arg17,Pro21,Pro27,Arg35]-h-amylin (peptide)
peptide: K([γGlu-γGlu-C20 diacid])CNTATCATQRLAEFLRHSSPNFGAIPSSTNVGSRTY-NH2
modifications: disulfide 2-7; N-terminus assumed
SMILES: CC[C@H](C)[C@H](NC(=O)[C@H](C)NC(=O)CNC(=O)[C@H](Cc1ccccc1)NC(=O)[C@H](CC(N)=O)NC(=O)[C@@H]1CCCN1C(=O)[C@H](CO)NC(=O)[C@H](CO)NC(=O)[C@H](Cc1c[nH]cn1)NC(=O)[C@H](CCCNC(=N)N)NC(=O)[C@H](CC(C)C)NC(=O)[C@H](Cc1ccccc1)NC(=O)[C@H](CCC(=O)O)NC(=O)[C@H](C)NC(=O)[C@H](CC(C)C)NC(=O)[C@H](CCCNC(=N)N)NC(=O)[C@H](CCC(N)=O)NC(=O)[C@@H](NC(=O)[C@H](C)NC(=O)[C@@H]1CSSC[C@H](NC(=O)[C@@H](N)CCCCNC(=O)CC[C@H](NC(=O)CC[C@H](NC(=O)CCCCCCCCCCCCCCCCCCC(=O)O)C(=O)O)C(=O)O)C(=O)N[C@@H](CC(N)=O)C(=O)N[C@@H]([C@@H](C)O)C(=O)N[C@@H](C)C(=O)N[C@@H]([C@@H](C)O)C(=O)N1)[C@@H](C)O)C(=O)N1CCC[C@H]1C(=O)N[C@@H](CO)C(=O)N[C@@H](CO)C(=O)N[C@H](C(=O)N[C@@H](CC(N)=O)C(=O)N[C@H](C(=O)NCC(=O)N[C@@H](CO)C(=O)N[C@@H](CCCNC(=N)N)C(=O)N[C@H](C(=O)N[C@@H](Cc1ccc(O)cc1)C(N)=O)[C@@H](C)O)C(C)C)[C@@H](C)O
notes: synthetic analogue of human amylin; also called compound 89
Turning to B1, the IC50 in test [1] came out at 2.37 nM; with rat calcitonin receptor [3], 115 nM. In addition, the “Ratio hCT/hAmylin binding” value in test [2] came out at 28. The “Ratio rCT/rAmylin binding” value in the test with rat calcitonin receptor [4] was 48.8.

B2: N^ε1-[(4S)-4-carboxy-4-[[(4S)-4-carboxy-4-(19-carboxynonadecanoylamino)butanoyl]amino]butanoyl]-[Glu14,Arg17,Pro21,Pro27,His34]-h-amylin (peptide)
peptide: K([γGlu-γGlu-C20 diacid])CNTATCATQRLAEFLRHSSPNFGAIPSSTNVGHNTY-NH2
modifications: disulfide 2-7; N-terminus assumed
SMILES: CC[C@H](C)[C@H](NC(=O)[C@H](C)NC(=O)CNC(=O)[C@H](Cc1ccccc1)NC(=O)[C@H](CC(N)=O)NC(=O)[C@@H]1CCCN1C(=O)[C@H](CO)NC(=O)[C@H](CO)NC(=O)[C@H](Cc1c[nH]cn1)NC(=O)[C@H](CCCNC(=N)N)NC(=O)[C@H](CC(C)C)NC(=O)[C@H](Cc1ccccc1)NC(=O)[C@H](CCC(=O)O)NC(=O)[C@H](C)NC(=O)[C@H](CC(C)C)NC(=O)[C@H](CCCNC(=N)N)NC(=O)[C@H](CCC(N)=O)NC(=O)[C@@H](NC(=O)[C@H](C)NC(=O)[C@@H]1CSSC[C@H](NC(=O)[C@@H](N)CCCCNC(=O)CC[C@H](NC(=O)CC[C@H](NC(=O)CCCCCCCCCCCCCCCCCCC(=O)O)C(=O)O)C(=O)O)C(=O)N[C@@H](CC(N)=O)C(=O)N[C@@H]([C@@H](C)O)C(=O)N[C@@H](C)C(=O)N[C@@H]([C@@H](C)O)C(=O)N1)[C@@H](C)O)C(=O)N1CCC[C@H]1C(=O)N[C@@H](CO)C(=O)N[C@@H](CO)C(=O)N[C@H](C(=O)N[C@@H](CC(N)=O)C(=O)N[C@H](C(=O)NCC(=O)N[C@@H](Cc1c[nH]cn1)C(=O)N[C@@H](CC(N)=O)C(=O)N[C@H](C(=O)N[C@@H](Cc1ccc(O)cc1)C(N)=O)[C@@H](C)O)C(C)C)[C@@H](C)O
notes: synthetic analogue of human amylin; also called compound 87
Regarding B2, the concentration for half-maximal inhibition (IC50) in test [1] amounted to 2.07 nM; with rat calcitonin receptor [3], 94.5 nM. Besides, the “Ratio hCT/hAmylin binding” value in test [2] came to 35.6. In the test with rat calcitonin receptor [4], the “Ratio rCT/rAmylin binding” value worked out at 45.6.

B3: N^ε21-[(4S)-4-carboxy-4-[[(4S)-4-carboxy-4-(19-carboxynonadecanoylamino)butanoyl]amino]butanoyl]-[Asp14,Arg17,Lys21,Pro27,Asp35]-h-amylin (peptide)
peptide: KCNTATCATQRLADFLRHSSK([γGlu-γGlu-C20 diacid])NFGAIPSSTNVGSDTY-NH2
modifications: disulfide 2-7; N-terminus assumed
SMILES: CC[C@H](C)[C@H](NC(=O)[C@H](C)NC(=O)CNC(=O)[C@H](Cc1ccccc1)NC(=O)[C@H](CC(N)=O)NC(=O)[C@H](CCCCNC(=O)CC[C@H](NC(=O)CC[C@H](NC(=O)CCCCCCCCCCCCCCCCCCC(=O)O)C(=O)O)C(=O)O)NC(=O)[C@H](CO)NC(=O)[C@H](CO)NC(=O)[C@H](Cc1c[nH]cn1)NC(=O)[C@H](CCCNC(=N)N)NC(=O)[C@H](CC(C)C)NC(=O)[C@H](Cc1ccccc1)NC(=O)[C@H](CC(=O)O)NC(=O)[C@H](C)NC(=O)[C@H](CC(C)C)NC(=O)[C@H](CCCNC(=N)N)NC(=O)[C@H](CCC(N)=O)NC(=O)[C@@H](NC(=O)[C@H](C)NC(=O)[C@@H]1CSSC[C@H](NC(=O)[C@@H](N)CCCCN)C(=O)N[C@@H](CC(N)=O)C(=O)N[C@@H]([C@@H](C)O)C(=O)N[C@@H](C)C(=O)N[C@@H]([C@@H](C)O)C(=O)N1)[C@@H](C)O)C(=O)N1CCC[C@H]1C(=O)N[C@@H](CO)C(=O)N[C@@H](CO)C(=O)N[C@H](C(=O)N[C@@H](CC(N)=O)C(=O)N[C@H](C(=O)NCC(=O)N[C@@H](CO)C(=O)N[C@@H](CC(=O)O)C(=O)N[C@H](C(=O)N[C@@H](Cc1ccc(O)cc1)C(N)=O)[C@@H](C)O)C(C)C)[C@@H](C)O
notes: synthetic analogue of human amylin; also called compound 59
In the case of B3, the IC50 in test [1] was found to be 0.659 nM; with rat calcitonin receptor [3], 18.8 nM. Also, the “Ratio hCT/hAmylin binding” value in test [2] was found to be 4.3. In addition, the “Ratio rCT/rAmylin binding” value in the test with rat calcitonin receptor [4] was found to be 28.5.

B4: N^ε1-[(4S)-4-carboxy-4-(19-carboxynonadecanoylamino)butanoyl]-[His14,Arg17,Pro21,Pro27]-h-amylin (peptide)
peptide: K([γGlu-C20 diacid])CNTATCATQRLAHFLRHSSPNFGAIPSSTNVGSNTY-NH2
modifications: disulfide 2-7; N-terminus assumed
SMILES: CC[C@H](C)[C@H](NC(=O)[C@H](C)NC(=O)CNC(=O)[C@H](Cc1ccccc1)NC(=O)[C@H](CC(N)=O)NC(=O)[C@@H]1CCCN1C(=O)[C@H](CO)NC(=O)[C@H](CO)NC(=O)[C@H](Cc1c[nH]cn1)NC(=O)[C@H](CCCNC(=N)N)NC(=O)[C@H](CC(C)C)NC(=O)[C@H](Cc1ccccc1)NC(=O)[C@H](Cc1c[nH]cn1)NC(=O)[C@H](C)NC(=O)[C@H](CC(C)C)NC(=O)[C@H](CCCNC(=N)N)NC(=O)[C@H](CCC(N)=O)NC(=O)[C@@H](NC(=O)[C@H](C)NC(=O)[C@@H]1CSSC[C@H](NC(=O)[C@@H](N)CCCCNC(=O)CC[C@H](NC(=O)CCCCCCCCCCCCCCCCCCC(=O)O)C(=O)O)C(=O)N[C@@H](CC(N)=O)C(=O)N[C@@H]([C@@H](C)O)C(=O)N[C@@H](C)C(=O)N[C@@H]([C@@H](C)O)C(=O)N1)[C@@H](C)O)C(=O)N1CCC[C@H]1C(=O)N[C@@H](CO)C(=O)N[C@@H](CO)C(=O)N[C@H](C(=O)N[C@@H](CC(N)=O)C(=O)N[C@H](C(=O)NCC(=O)N[C@@H](CO)C(=O)N[C@@H](CC(N)=O)C(=O)N[C@H](C(=O)N[C@@H](Cc1ccc(O)cc1)C(N)=O)[C@@H](C)O)C(C)C)[C@@H](C)O
notes: synthetic analogue of human amylin; also called compound 70
Take B4: the results for the IC50 (in test [1]; with rat calcitonin receptor [3]) were 0.355 nM and 34.2 nM, respectively. The “Ratio hCT/hAmylin binding” value in test [2] is 60.8. Further, the “Ratio rCT/rAmylin binding” value with rat calcitonin receptor [4] amounted to 96.5.
